Measurements from PMC4543939.

Target: Cer-PLN-AFA and YFP-PLN-AFA: canine phospholamban AFA mutant fused at its N-terminus with mCerulean or enhanced YFP (canine) (UniProt P61012)
Assay: FRET or BRET; in-cell binding assay, acceptor sensitization FRET in living AAV-293 cells co-transfected with Cer-PLN-AFA and YFP-PLN-AFA (1:5); FRET against relative protein concentration cell by cell, hyperbolic fit; apparent KD1 of the PLN-PLN oligomer; with or without 1 uM 50-mer ssDNA

Cer-PLN-AFA and YFP-PLN-AFA: canine phospholamban AFA mutant fused at its N-terminus with mCerulean or enhanced YFP, sequence (P61012 whole entry, change not shown, the tested form may be a part): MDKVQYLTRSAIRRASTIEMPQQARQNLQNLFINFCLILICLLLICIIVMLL

**Q.** Which increase in PLN oligomerization with 50-mer ssDNA against no ssDNA does the source give for “Cer-PLN-AFA and YFP-PLN-AFA: canine phospholamban AFA mutant fused at its N-terminus with mCerulean or enhanced YFP (from UniProt P61012 1-52) (natural protein)” here?
**A.** 20%
